Assay [1] addresses Myc-GST融合蛋白 (Myc标签与谷胱甘肽融合的蛋白). Kind of assay: indirect ELISA, Myc-GST coated at 5 μg/mL, HRP anti-His secondary; heat test at 80℃.
For assay [2], the target named is Myc-GST融合蛋白 (Myc标签与谷胱甘肽融合的蛋白). Description: indirect ELISA, Myc-GST coated at 5 μg/mL, HRP anti-His secondary; heat test at 70℃. (In general: An ELISA detects its analyte on a solid surface through an enzyme-linked reagent.)
Assay [3] addresses Myc-GST融合蛋白 (Myc标签与谷胱甘肽融合的蛋白). Kind of assay: indirect ELISA, Myc-GST coated at 5 μg/mL, HRP anti-His secondary; heat test at 90℃.

B1: 抗c-Myc标签单域重链抗体 (anti-c-Myc tag single-domain heavy-chain antibody, SEQ ID NO.:1) (VHH, not shown: small tags and cut ends)
VHH: QLQLVESGGGLVQAGGSLRLSCAVSGFTFSANAMSWVRQAPGKGPEWVSSINRGGASAEYADSVKGRFTISRDDAKNTLYLQMNSLKPEDTALYYCARGNYRGSYFNGPRTYWGRGTQVTVSP
As for B1, the OD450 in assay [1] stood at 1.2 OD450; in assay [2], 1.4 OD450; in assay [3], 1.1 OD450.

These data come from patent CN107042098A.
